According to patent publication US10736970B2, “Polypeptide complex of titin-telethonin beta-pleated sheet structure as polypeptide drug carrier, method of using the polypeptide complex, and fusion protein complex thereof” (TIANJIN INSTITUTE OF INDUSTRIAL BIOTECHNOLOGY, CHINESE …, priority 2015, dated 2020):

Experiments:
SD rats [1] = assay: Oral glucose tolerance test (OGTT) in rats, blood glucose; assay type: in vivo, rat; conditions: single i.p. 25 nmol/kg
Description: (§1) The rats in the first three groups were given 25 nmol/kg by intraperitoneal injection, the rats in the PBS group were given the same volume of PBS, and the blood glucose was measured by a blood glucose meter. After 30 min, 2 g glucose/kg body weight was given by oral gavage, which was assumed to occur at 0 min, and then the blood glucose level was measured respectively at 10, 30, 60, 90, and 120 min. The area under curve (AUC) was calculated using Graphpad Prism 6.0 software. During the process, blood was taken from the tail vein respectively at 0, 10, and 30 min, added to a centrifuge tube containing EDTA-Na2, and centrifuged at 4000 rpm for 10 min. The supernatant was collected, and the insulin content was measured by using the Rat/Mouse Insulin Elisa kit (Millipore).
SD rats of about 250 g were randomized into 4 groups (n=5), including a 1 nmol/kg group, a 5 nmol/kg group, a 25 nmol/kg group, and a PBS group.
The animals were allowed to free access to food for 12 h, and then fasted for 12 h. Then, OGTT was carried out. […]
The blood glucose level was measured by a blood glucose meter, and this was assumed to occur at −30 min. […] Then, the blood glucose was measured respectively at 10, 30, 60, 90, and 120 min. The area under curve (AUC) was calculated using Graphpad Prism 6.0 software.

SD rats [2] = assay: Insulin content in rat plasma during OGTT; assay type: in vivo; conditions: single i.p. 25 nmol/kg
Description: as §1
In the OGTT test of each group, blood was taken from the tail vein of rats at a time ranging from 10 to 30 min, and added dropwise to an Ep tube containing EDTA-Na2. The plasma was removed, and the insulin content was determined by using the Insulin Elisa kit (Millipore).
(§2) During the process, blood was taken from the tail vein at a time ranging from 10 to 30 min, added to a centrifuge tube containing EDTA-Na2, and centrifuged at 4000 rpm for 10 min. The supernatant was collected, and the insulin content was measured by using the Rat/Mouse Insulin Elisa kit (Millipore).

[3] = literature / background value; cited from earlier work
C57BL/6 mice [4] = assay: Insulin content during OGTT in C57BL/6 mice; assay type: in vivo, mouse; conditions: i.p. 10 nmol/kg
Description: as §2

C57BL/6 mice [5] = assay: OGTT in C57BL/6 mice, blood glucose; assay type: in vivo, mouse; conditions: i.p. 10 nmol/kg
Description: C57BL/6 mice of about 25 g were randomized into 3 groups (n=5), including a PBS group, a Z1Z2/GLTe-G group, and a GLRecom group. The animals in the Z1Z2/GLTe-G group and the GLRecom group were given the Z1Z2/GLTe-G and GLRecom respectively by intraperitoneal injection at a dosage of 10 nmol/kg body weight, and the animals in the PBS group were given the same volume of PBS. The blood glucose level was measured by a blood glucose meter, and this was assumed to occur at −30 min. After 30 min, 2 g glucose/kg body weight was given by oral gavage, and this was assumed to occur at 0 min. Then, the blood glucose was measured respectively at 10, 30, 60, 90, and 120 min. The AUC was calculated by using the Graphpad Prism 6.0 software.

[6] = rat, in vivo
Description: Blood was sampled from the tail respectively at 0, 0.5, 1, 1.5, 2, 4, 6, and 10 h, and dripped into an Ep tube pretreated with EDTA-Na2. A DPP-4 inhibitor was immediately added (in 30 s) after the blood was sampled.
Then, blood was taken respectively at 1, 2, 4, 8, and 24 h, and added dropwise to an Ep tube pretreated with EDTA-Na2.
1 nmol GLZ/TeN was administered to the SD rats (about 250 g) by intravenous (i.v) injection at the tail and by subcutaneous injection (s.c), and this was assumed to occur at 0 h. Blood was sampled from the tail vein of the rats respectively at 0.05, 0.5, 2, 4, 8, 11, 24, and 48 h, and dripped into an Ep tube pretreated with EDTA-Na2. The protease inhibitor protinin was immediately added (in 30 s) after the blood was sampled.
2.8 nmol GLRecom was administered to the SD rats (about 250 g) by intravenous (i.v) injection at the tail, and this was assumed to occur at 0 h. Blood was sampled from the tail vein of the rats respectively at 0.05, 0.5, 2, 5, 10, 24, and 48 h, and dripped into a centrifugation tube pretreated with EDTA-Na2. The protease inhibitor protinin was immediately added (in 30 s) after the blood was sampled.

CC[C@H](C)[C@H](NC(=O)[C@H](Cc1ccccc1)NC(=O)[C@H](CCC(=O)O)NC(=O)[C@H](CCCCN)NC(=O)[C@H](C)NC(=O)[C@H](C)NC(=O)[C@H](CCC(N)=O)NC(=O)CNC(=O)[C@H](CCC(=O)O)NC(=O)[C@H](CC(C)C)NC(=O)[C@H](Cc1ccc(O)cc1)NC(=O)[C@H](CO)NC(=O)[C@H](CO)NC(=O)[C@@H](NC(=O)[C@H](CC(=O)O)NC(=O)[C@H](CO)NC(=O)[C@@H](NC(=O)[C@H](Cc1ccccc1)NC(=O)[C@@H](NC(=O)CNC(=O)[C@H](CCC(=O)O)NC(=O)[C@H](C)NC(=O)[C@@H](N)Cc1c[nH]cn1)[C@@H](C)O)[C@@H](C)O)C(C)C)C(=O)N[C@@H](C)C(=O)N[C@@H](Cc1c[nH]c2ccccc12)C(=O)N[C@@H](CC(C)C)C(=O)N[C@H](C(=O)N[C@@H](CCCCN)C(=O)NCC(=O)N[C@@H](CCCNC(=N)N)C(=O)NCC(=O)O)C(C)C [GLP-1, Glucagon-like peptide 1, reference compound]
period of time of effective blood glucose control in OGTT (SD rats [1]): 30 min
effect on blood glucose level in OGTT (SD rats [1]; 2 g glucose/kg oral after 30 min): significantly reduce the blood glucose level
blood insulin content during OGTT (SD rats [2]): significantly increase the blood insulin content

Peptide Tyrosin-tyrosin [PYY]
in-vivo half-life period of native peptide [3]: 8 min

B1: GLRecom: Single fusion protein: GLP-1(8G)-Z1Z2, Telethonin beta-pleated sheet region and second Z1Z2 connected via linkers (SEQ ID NO: 20), 60.0 kDa (protein)
chain: MKHHHHHHPMSDYDIPTTENLYFQHGEGTFTSDVSSYLEGQAAKEFIAWLVKGRGGGGGSGGGGSGGGGSAMATQAPTFTQPLQSVVVLEGSTATFEAHISGFPVPEVSWFRDGQVISTSTLPGVQISFSDGRAKLTIPAVTKANSGRYSLKATNGSGQATSTAELLVKAETAPPNFVQRLQSMTVRQGSQVRLQVRVTGIPTPVVKFYRDGAEIQSSLDFQISQEGDLYSLLIAEAYPEDSGTYSVNATNSVGRATSTAELLVQGSGSGSAPGTPGGGGSGGGGSGGGGSMATSELSSEVSEENSERREAFWAEWKDLTLSTRPEEGSSLHEEDTQRHETYHQQGQSQVLVQRSPWLMMRMGILGRGLQEYQLPYQRVLPGASGPAGSPTGSGPGSAGSGPGSAGMATQAPTFTQPLQSVVVLEGSTATFEAHISGFPVPEVSWFRDGQVISTSTLPGVQISFSDGRAKLTIPAVTKANSGRYSLKATNGSGQATSTAELLVKAETAPPNFVQRLQSMTVRQGSQVRLQVRVTGIPTPVVKFYRDGAEIQSSLDFQISQEGDLYSLLIAEAYPEDSGTYSVNATNSVGRATSTAELLVQG
level of insulin secretion (C57BL/6 mice [4]): significantly enhance the level of insulin secretion
AUC of blood glucose in OGTT (C57BL/6 mice [5]): significantly reduced
blood glucose reducing effect in OGTT (C57BL/6 mice [5]; 2 g/kg glucose): significant blood glucose reducing effect
blood glucose level at 120 min in OGTT (C57BL/6 mice [5]; 120 min): still significantly reduced
half-life period after intravenous injection [6]: 13.4 ± 0.8 h
half-life period relative to Z1Z2/GLTe-G complex (4 h) ([6]; iv): more than 3 times
